Data as given in the Human Domainome abundance scans (Beltran et al. 2025).
± gives the uncertainty stated by the source.

B1: Intersectin-2, residues 1129 to 1183; numbered along this chain, Q9NZM3 (parent)
chain: VCQVIAMYDYAANNEDELSFSKGQLINVMNKDDPDWWQGEINGVTGLFPSNYVKM

Variants of: B1
Assay: abundance fitness (aPCA) (normalised: wild type 0, dead -1); higher = more abundant; growth selection in yeast, the domain comes from the species named
Conditions: Homo sapiens

Row | Variant | abundance fitness
1 | VCQVIAMYDYAANNEDNLSFSKGQLINVMNKDDPDWWQGEINGVTGLFPSNYVKM [E17N] | -0.271 ± 0.097
2 | VCQVIAMYDYAANNEDQLSFSKGQLINVMNKDDPDWWQGEINGVTGLFPSNYVKM [E17Q] | -0.042 ± 0.043
3 | VCQVIAMYDYAANNEDKLSFSKGQLINVMNKDDPDWWQGEINGVTGLFPSNYVKM [E17K] | -0.089 ± 0.042
4 | VCQVIAMYDYAANNEDALSFSKGQLINVMNKDDPDWWQGEINGVTGLFPSNYVKM [E17A] | -0.174 ± 0.04
5 | VCQVIAMYDYAANNEDLLSFSKGQLINVMNKDDPDWWQGEINGVTGLFPSNYVKM [E17L] | -0.124 ± 0.03
6 | VCQVIAMYDYAANNEDYLSFSKGQLINVMNKDDPDWWQGEINGVTGLFPSNYVKM [E17Y] | 0.064 ± 0.048
7 | VCQVIAMYDYAANNEDPLSFSKGQLINVMNKDDPDWWQGEINGVTGLFPSNYVKM [E17P] | -0.756 ± 0.12
8 | VCQVIAMYDYAANNEDFLSFSKGQLINVMNKDDPDWWQGEINGVTGLFPSNYVKM [E17F] | -0.11 ± 0.04
9 | VCQVIAMYDYAANNEDMLSFSKGQLINVMNKDDPDWWQGEINGVTGLFPSNYVKM [E17M] | -0.037 ± 0.044
10 | VCQVIAMYDYAANNEDTLSFSKGQLINVMNKDDPDWWQGEINGVTGLFPSNYVKM [E17T] | -0.158 ± 0.049
11 | VCQVIAMYDYAANNEDRLSFSKGQLINVMNKDDPDWWQGEINGVTGLFPSNYVKM [E17R] | -0.016 ± 0.03
12 | VCQVIAMYDYAANNEDILSFSKGQLINVMNKDDPDWWQGEINGVTGLFPSNYVKM [E17I] | -0.215 ± 0.072
13 | VCQVIAMYDYAANNEDGLSFSKGQLINVMNKDDPDWWQGEINGVTGLFPSNYVKM [E17G] | -0.039 ± 0.041
14 | VCQVIAMYDYAANNEDDLSFSKGQLINVMNKDDPDWWQGEINGVTGLFPSNYVKM [E17D] | -0.16 ± 0.043
15 | VCQVIAMYDYAANNEDWLSFSKGQLINVMNKDDPDWWQGEINGVTGLFPSNYVKM [E17W] | -0.322 ± 0.054
16 | VCQVIAMYDYAANNEDCLSFSKGQLINVMNKDDPDWWQGEINGVTGLFPSNYVKM [E17C] | -0.105 ± 0.042
17 | VCQVIAMYDYAANNEDVLSFSKGQLINVMNKDDPDWWQGEINGVTGLFPSNYVKM [E17V] | -0.145 ± 0.04
18 | VCQVIAMYDYAANNEDHLSFSKGQLINVMNKDDPDWWQGEINGVTGLFPSNYVKM [E17H] | 0.048 ± 0.062
19 | VCQVIAMYDYAAHNEDELSFSKGQLINVMNKDDPDWWQGEINGVTGLFPSNYVKM [N13H] | 0.106 ± 0.057
20 | VCQVIAMYDYAARNEDELSFSKGQLINVMNKDDPDWWQGEINGVTGLFPSNYVKM [N13R] | 0.038 ± 0.047
21 | VCQVIAMYDYAAENEDELSFSKGQLINVMNKDDPDWWQGEINGVTGLFPSNYVKM [N13E] | -0.017 ± 0.041
22 | VCQVIAMYDYAAGNEDELSFSKGQLINVMNKDDPDWWQGEINGVTGLFPSNYVKM [N13G] | 0.031 ± 0.039
23 | VCQVIAMYDYAAINEDELSFSKGQLINVMNKDDPDWWQGEINGVTGLFPSNYVKM [N13I] | -0.071 ± 0.05
24 | VCQVIAMYDYAAMNEDELSFSKGQLINVMNKDDPDWWQGEINGVTGLFPSNYVKM [N13M] | -0.014 ± 0.037

Row | Variant | abundance fitness
25 | VCQVIAMYDYAASNEDELSFSKGQLINVMNKDDPDWWQGEINGVTGLFPSNYVKM [N13S] | 0.014 ± 0.029
26 | VCQVIAMYDYAAANEDELSFSKGQLINVMNKDDPDWWQGEINGVTGLFPSNYVKM [N13A] | -0.024 ± 0.041
27 | VCQVIAMYDYAAQNEDELSFSKGQLINVMNKDDPDWWQGEINGVTGLFPSNYVKM [N13Q] | 0.051 ± 0.033
28 | VCQVIAMYDYAAYNEDELSFSKGQLINVMNKDDPDWWQGEINGVTGLFPSNYVKM [N13Y] | -0.141 ± 0.069
29 | VCQVIAMYDYAAKNEDELSFSKGQLINVMNKDDPDWWQGEINGVTGLFPSNYVKM [N13K] | 0.042 ± 0.037
30 | VCQVIAMYDYAADNEDELSFSKGQLINVMNKDDPDWWQGEINGVTGLFPSNYVKM [N13D] | -0.033 ± 0.034
31 | VCQVIAMYDYAAPNEDELSFSKGQLINVMNKDDPDWWQGEINGVTGLFPSNYVKM [N13P] | -0.133 ± 0.055
32 | VCQVIAMYDYAACNEDELSFSKGQLINVMNKDDPDWWQGEINGVTGLFPSNYVKM [N13C] | -0.047 ± 0.056
33 | VCQVIAMYDYAATNEDELSFSKGQLINVMNKDDPDWWQGEINGVTGLFPSNYVKM [N13T] | 0.011 ± 0.037
34 | VCQVIAMYDYAAVNEDELSFSKGQLINVMNKDDPDWWQGEINGVTGLFPSNYVKM [N13V] | -0.003 ± 0.033
35 | VCQVIAMYDYAAWNEDELSFSKGQLINVMNKDDPDWWQGEINGVTGLFPSNYVKM [N13W] | -0.306 ± 0.069
36 | VCQVIAMYDYAALNEDELSFSKGQLINVMNKDDPDWWQGEINGVTGLFPSNYVKM [N13L] | 0.01 ± 0.036
37 | VCQVIAMYDYAAFNEDELSFSKGQLINVMNKDDPDWWQGEINGVTGLFPSNYVKM [N13F] | -0.092 ± 0.042
38 | VCQVIAMYDYAANNFDELSFSKGQLINVMNKDDPDWWQGEINGVTGLFPSNYVKM [E15F] | -0.12 ± 0.06
39 | VCQVIAMYDYAANNVDELSFSKGQLINVMNKDDPDWWQGEINGVTGLFPSNYVKM [E15V] | -0.014 ± 0.045
40 | VCQVIAMYDYAANNHDELSFSKGQLINVMNKDDPDWWQGEINGVTGLFPSNYVKM [E15H] | 0 ± 0.068
41 | VCQVIAMYDYAANNMDELSFSKGQLINVMNKDDPDWWQGEINGVTGLFPSNYVKM [E15M] | -0.083 ± 0.061
42 | VCQVIAMYDYAANNCDELSFSKGQLINVMNKDDPDWWQGEINGVTGLFPSNYVKM [E15C] | -0.048 ± 0.031
43 | VCQVIAMYDYAANNRDELSFSKGQLINVMNKDDPDWWQGEINGVTGLFPSNYVKM [E15R] | -0.037 ± 0.03
44 | VCQVIAMYDYAANNKDELSFSKGQLINVMNKDDPDWWQGEINGVTGLFPSNYVKM [E15K] | -0.048 ± 0.059
45 | VCQVIAMYDYAANNNDELSFSKGQLINVMNKDDPDWWQGEINGVTGLFPSNYVKM [E15N] | -0.123 ± 0.069
46 | VCQVIAMYDYAANNSDELSFSKGQLINVMNKDDPDWWQGEINGVTGLFPSNYVKM [E15S] | -0.01 ± 0.039
47 | VCQVIAMYDYAANNYDELSFSKGQLINVMNKDDPDWWQGEINGVTGLFPSNYVKM [E15Y] | -0.002 ± 0.06
48 | VCQVIAMYDYAANNPDELSFSKGQLINVMNKDDPDWWQGEINGVTGLFPSNYVKM [E15P] | 0.011 ± 0.036
